Results from patent US20250020634A1.

Target: NaV1.5-V5 (cardiac voltage-gated sodium channel alpha subunit, SCN5A)
Experiment: cell-based or functional assay

rat β1-V5-6×HIS (sodium channel beta-1 subunit, SCN1B) (from UniProt Q00954 19-218)
GV ΔV1/2 (mV), whole-cell patch clamp, BeHAPe cells, NaV1.5 + β1: 6.7 mV | GV ΔV1/2 (mV), whole-cell patch clamp, eHAP cells, NaV1.5 + β1: 0.2 mV | SSI ΔV1/2 (mV), whole-cell patch clamp, BeHAPe cells, NaV1.5 + β1: 8.8 mV | SSI ΔV1/2 (mV), whole-cell patch clamp, eHAP cells, NaV1.5 + β1: 3.2 mV | shift of GV V1/2 (fit to mean values, FIG. 5A), BeHAPe cells: 7.5 mV | shift of SSI V1/2 (fit to mean values, FIG. 5A), BeHAPe cells: 7.5 mV | Δτ inactivation at V1/2 (ms), whole-cell patch clamp, BeHAPe cells, NaV1.5 + β1: -1.7 ms | Δτ inactivation at V1/2 (ms), whole-cell patch clamp, eHAP cells, NaV1.5 + β1: -0.3 ms

β1 & β2 (rat β1-V5-6×HIS and rat β2-HA simultaneously co-expressed) (from UniProt Q00954 19-157; P54900 30-157)
GV ΔV1/2 (mV), whole-cell patch clamp, BeHAPe cells, NaV1.5 + β1 & β2: 7.9 mV | SSI ΔV1/2 (mV), whole-cell patch clamp, BeHAPe cells, NaV1.5 + β1 & β2: 9.1 mV | shift of GV V1/2 (fit to mean values, FIG. 5E), BeHAPe cells: 9.3 mV | shift of SSI V1/2 (fit to mean values, FIG. 5E), BeHAPe cells: 13.4 mV | Δτ inactivation at V1/2 (ms), whole-cell patch clamp, BeHAPe cells, NaV1.5 + β1 & β2: 0 ms

rat β2-HA (sodium channel beta-2 subunit, SCN2B) (from UniProt P54900 30-215)
GV ΔV1/2 (mV), whole-cell patch clamp, BeHAPe cells, NaV1.5 + β2: -2.5 mV | SSI ΔV1/2 (mV), whole-cell patch clamp, BeHAPe cells, NaV1.5 + β2: -9.9 mV | shift of SSI V1/2 (fit to mean values, FIG. 5B), BeHAPe cells: -5.9 mV | Δτ inactivation at V1/2 (ms), whole-cell patch clamp, BeHAPe cells, NaV1.5 + β2: -0.5 ms

B1: Myelin protein zero (MPZ) (protein, UniProt P25189 1-248, looked up, species assumed)
chain: MAPGAPSSSPSPILAVLLFSSLVLSPAQAIVVYTDREVHGAVGSRVTLHCSFWSSEWVSDDISFTWRYQPEGGRDAISIFHYAKGQPYIDEVGTFKERIQWVGDPRWKDGSIVIHNLDYSDNGTFTCDVKNPPDIVGKTSQVTLYVFEKVPTRYGVVLGAVIGGVLGVVLLLLLLFYVVRYCWLRRQAALQRRLSAMEKGKLHKPGKDASKRGRQTPVLYAMLDHSRSTKAVSEKKAKGLGESRKDKK
modifications: full-length
GV ΔV1/2 (mV), whole-cell patch clamp, BeHAPe cells, NaV1.5 + MPZ: 8.7 mV | SSI ΔV1/2 (mV), whole-cell patch clamp, BeHAPe cells, NaV1.5 + MPZ: 6.3 mV | shift of GV V1/2 (fit to mean values, FIG. 5F), BeHAPe cells: 7.4 mV | shift of SSI V1/2 (fit to mean values, FIG. 5F), BeHAPe cells: 6.9 mV | Δτ inactivation at V1/2 (ms), whole-cell patch clamp, BeHAPe cells, NaV1.5 + MPZ: 0.2 ms

B2: human β3 (sodium channel beta-3 subunit, SCN3B) (protein, UniProt Q9NY72 23-215, looked up)
chain: FPVCVEVPSETEAVQGNPMKLRCISCMKREEVEATTVVEWFYRPEGGKDFLIYEYRNGHQEVESPFQGRLQWNGSKDLQDVSITVLNVTLNDSGLYTCNVSREFEFEAHRPFVKTTRLIPLRVTEEAGEDFTSVVSEIMMYILLVFLTLWLLIEMIYCYRKVSKAEEAAQENASDYLAIPSENKENSAVPVEE
GV ΔV1/2 (mV), whole-cell patch clamp, BeHAPe cells, NaV1.5 + β3: 8.8 mV | SSI ΔV1/2 (mV), whole-cell patch clamp, BeHAPe cells, NaV1.5 + β3: 9.1 mV | shift of GV V1/2 (fit to mean values, FIG. 5C), BeHAPe cells: 7.4 mV | shift of SSI V1/2 (fit to mean values, FIG. 5C), BeHAPe cells: 9.4 mV | Δτ inactivation at V1/2 (ms), whole-cell patch clamp, BeHAPe cells, NaV1.5 + β3: 0.4 ms

B3: human β4 (sodium channel beta-4 subunit, SCN4B) (protein, UniProt Q8IWT1 31-228, looked up)
chain: LEVSVGKATDIYAVNGTEILLPCTFSSCFGFEDLHFRWTYNSSDAFKILIEGTVKNEKSDPKVTLKDDDRITLVGSTKEKMNNISIVLRDLEFSDTGKYTCHVKNPKENNLQHHATIFLQVVDRLEEVDNTVTLIILAVVGGVIGLLILILLIKKLIIFILKKTREKKKECLVSSSGNDNTENGLPGSKAEEKPPSKV
GV ΔV1/2 (mV), whole-cell patch clamp, BeHAPe cells, NaV1.5 + β4: 5.2 mV | SSI ΔV1/2 (mV), whole-cell patch clamp, BeHAPe cells, NaV1.5 + β4: 2.4 mV | shift of GV V1/2 (fit to mean values, FIG. 5D), BeHAPe cells: 6.1 mV | Δτ inactivation at V1/2 (ms), whole-cell patch clamp, BeHAPe cells, NaV1.5 + β4: 0.5 ms
